In article PMC5760735, “Isolation and Characterization of Key Genes that Promote Flavonoid Accumulation in Purple-leaf Tea (Camellia sinensis L.)” (Scientific Reports, 2018) one finds Km data, which are given here for 1 protein.

For orientation: Km means the concentration of substrate that gives half-maximal velocity.

Settings in all cases: 5 mM UDP-glucose, phosphate buffer pH 7.5, 30 °C, 10 min
Substrate in series [1]: O=c1c(O)c(-c2cc(O)c(O)c(O)c2)oc2cc(O)cc(O)c12
Description: purified protein.

Substrate in series [2]: O=c1c(O)c(-c2ccc(O)cc2)oc2cc(O)cc(O)c12
Description: glucosyltransferase assay of recombinant enzyme, HPLC. Type of series: biochemical, Camellia sinensis.

Substrate in series [3]: O=c1c(O)c(-c2ccc(O)c(O)c2)oc2cc(O)cc(O)c12
The series is described as above. Type of series: biochemical, Camellia sinensis.

B1: CsUGT72AM1 (Camellia sinensis) (protein)
chain: MDSSNSKPHVALLSSPGIGHLIPVLELRKRLVANHGFHVTVFSVTTTTAPPPKPKTATTTTTLDLVDIFELHVDISGLVNPNAPFVERVGVTMRESLPILRQAISGMDPRPTTLVVDIFGTDAMKIADEFDMSKYVFITTSAWVFAFCVFVPTLDEEVEGEYVDLQEPVKIPGCNPVRVEDLVDPMLDRRSQQYFEFLRTCKGYLSFDGVLVNTWEDLERPTLKAFRENGLLKQVLKAPIYPIGPLVKRVGSSGSRSELLEWLDLQPCQSVLYVSFGSAGTVSAKQITELAWGLELSQQRFIWVLRPPMEKGGPHDLNDCDDVANYLPDGFLSRTHKLGLVVPTWAPQEEILGHRSVGGFLSHGGWNSSLESILSGVPMIMWPLYAEQKMNAAMVVEELEVGVRVVQLSEVVEREEIAKFVRMVIEGREGKAMRTRVKELQCSGERALIENGSSYESMCELARDFEMKLKY
notes: cDNA in pMAL-c2X (MBP fusion), expressed in E. coli Novablue (DE3), purified
Consider B1, for which the Km in series [1] worked out at 113.15 µM; in series [2], 71.81 µM; in series [3], 94.99 µM.
